# Biological target: His-tagged CP47 (PSII core antenna protein CP47) (Synechocystis sp. PCC 6803, UniProt P05429 1-507)
# Test: AUC
# Sequence of His-tagged CP47 (PSII core antenna protein CP47) (P05429 whole entry): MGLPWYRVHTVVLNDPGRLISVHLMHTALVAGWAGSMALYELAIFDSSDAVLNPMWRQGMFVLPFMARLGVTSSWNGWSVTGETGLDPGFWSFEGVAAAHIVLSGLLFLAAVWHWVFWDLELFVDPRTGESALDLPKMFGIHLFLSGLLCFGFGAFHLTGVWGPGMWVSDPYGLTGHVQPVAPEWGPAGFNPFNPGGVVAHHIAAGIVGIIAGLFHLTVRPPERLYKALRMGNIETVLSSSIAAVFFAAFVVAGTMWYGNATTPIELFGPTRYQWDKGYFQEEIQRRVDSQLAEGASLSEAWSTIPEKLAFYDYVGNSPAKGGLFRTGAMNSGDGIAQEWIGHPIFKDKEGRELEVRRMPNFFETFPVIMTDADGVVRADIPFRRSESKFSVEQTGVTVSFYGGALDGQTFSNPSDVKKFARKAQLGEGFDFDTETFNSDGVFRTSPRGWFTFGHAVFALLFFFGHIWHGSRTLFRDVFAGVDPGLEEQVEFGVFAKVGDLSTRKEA
binder,measurement,value
CP43 (PSII core antenna protein) (natural protein) not shown,stoichiometry N,~1

# Source: publication doi:10.1101/660712 (bioRxiv, 2019)
